What all share (experiment): cell-based or functional assay
The target in experiment [1] is T1, GLP-1 receptor (UniProt P43220 24-463, limits assumed).
Experiment [2] addresses T2, glucagon receptor (UniProt P47871 26-477, limits assumed).
Experiment [3] addresses T1, GLP-1 receptor. The source holds these as a separate data set.
Target sequence in this assay (P43220 24-463 limits assumed): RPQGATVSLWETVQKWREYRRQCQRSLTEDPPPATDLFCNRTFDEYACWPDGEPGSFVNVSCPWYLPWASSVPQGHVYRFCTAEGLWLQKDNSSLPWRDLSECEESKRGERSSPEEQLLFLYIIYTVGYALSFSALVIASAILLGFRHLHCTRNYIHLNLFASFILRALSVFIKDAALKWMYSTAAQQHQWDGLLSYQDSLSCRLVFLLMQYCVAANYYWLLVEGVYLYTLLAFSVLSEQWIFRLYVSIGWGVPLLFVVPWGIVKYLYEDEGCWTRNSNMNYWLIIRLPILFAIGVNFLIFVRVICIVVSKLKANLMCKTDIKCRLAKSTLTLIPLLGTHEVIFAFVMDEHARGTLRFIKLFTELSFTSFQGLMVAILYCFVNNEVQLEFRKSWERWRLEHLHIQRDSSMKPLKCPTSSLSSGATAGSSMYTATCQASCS
The target in experiment [4] is T2, glucagon receptor. This is another data set of the same source.
Experiment [5] concerns the target T1, GLP-1 receptor. This is another data set of the same source.
The target in experiment [6] is T2, glucagon receptor. This is another data set of the same source.

Like-named read-outs stand apart in the source and are kept apart here. Bridge positions count the residues as written; N and C are the ends. Ends that are not written are not given here. PLA = phenyl lactic acid

We go through 14 molecules from patent publication US20110288003A1 (INDIANA UNIVERSITY RESEARCH AND TECHNOLOGY, published 2011).

T2 sequence (P47871 26-477 limits assumed): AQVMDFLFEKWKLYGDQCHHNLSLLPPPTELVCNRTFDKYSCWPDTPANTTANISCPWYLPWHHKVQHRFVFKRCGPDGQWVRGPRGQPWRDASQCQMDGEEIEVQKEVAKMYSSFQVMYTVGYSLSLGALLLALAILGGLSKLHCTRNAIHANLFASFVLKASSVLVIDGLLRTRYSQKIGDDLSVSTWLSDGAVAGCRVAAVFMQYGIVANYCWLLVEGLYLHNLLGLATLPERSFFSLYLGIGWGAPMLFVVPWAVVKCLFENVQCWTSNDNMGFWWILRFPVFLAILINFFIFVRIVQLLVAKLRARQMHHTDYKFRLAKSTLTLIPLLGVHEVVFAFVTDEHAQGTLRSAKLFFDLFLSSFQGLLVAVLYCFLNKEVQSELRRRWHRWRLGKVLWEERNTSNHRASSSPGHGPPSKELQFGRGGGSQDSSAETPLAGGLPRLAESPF

B1: [A2E3, E16K20(Lactam), D28]G(1~29) (peptide)
peptide: HAEGTFTSEYSKYLDERRAKDFVQWLMDT-NH2
modifications: lactam 16-20; N-terminus assumed
SMILES: CSCC[C@H](NC(=O)[C@H](CC(C)C)NC(=O)[C@H](Cc1c[nH]c2ccccc12)NC(=O)[C@H](CCC(N)=O)NC(=O)[C@@H](NC(=O)[C@H](Cc1ccccc1)NC(=O)[C@H](CC(=O)O)NC(=O)[C@@H]1CCCCNC(=O)CC[C@H](NC(=O)[C@H](CC(=O)O)NC(=O)[C@H](CC(C)C)NC(=O)[C@H](Cc2ccc(O)cc2)NC(=O)[C@H](CCCCN)NC(=O)[C@H](CO)NC(=O)[C@H](Cc2ccc(O)cc2)NC(=O)[C@H](CCC(=O)O)NC(=O)[C@H](CO)NC(=O)[C@@H](NC(=O)[C@H](Cc2ccccc2)NC(=O)[C@@H](NC(=O)CNC(=O)[C@H](CCC(=O)O)NC(=O)[C@H](C)NC(=O)[C@@H](N)Cc2c[nH]cn2)[C@@H](C)O)[C@@H](C)O)C(=O)N[C@@H](CCCNC(=N)N)C(=O)N[C@@H](CCCNC(=N)N)C(=O)N[C@@H](C)C(=O)N1)C(C)C)C(=O)N[C@@H](CC(=O)O)C(=O)N[C@H](C(N)=O)[C@@H](C)O
On to B1, for which, in the experiment with GLP-1 receptor [1], the “GLP-1 EC50” value is 0.2 nM. Also, the “Glucagon IC50 (nM); PA = partial antagonist” value with glucagon receptor [2] amounted to 130 nM.

Take {PLA}-TSDYSKYLDERRAKDFVEWLMDT (lactam 14-18) [[PLA6, D9, E16, K20E24(Lactam), D28]G(6-29)]: the “GLP-1 EC50” value in the experiment with GLP-1 receptor [1] came to 239 nM. The “Glucagon IC50” value with glucagon receptor [2] is 74 nM.

Turning to {PLA}-TSEYSKYLDERRAQDFVQWLMNTGPSSGAPPPS (lactam 6-10) [[PLA6, E9, K12E16(Lactam) glucagon(6-39) (Table 13, peptide 5)], in the experiment with GLP-1 receptor [3], the “GLP-1 EC50” value came out at 6 nM. Also, the “Glu IC50” value in the experiment with glucagon receptor [4] was found to be 72 nM.

As for {PLA}-TSDYSKYLDERRAQDFVQWLMDT (lactam 6-10) [[PLA6, D9, K12E16(Lactam), D28]G(6-29)], the “GLP-1 EC50” value in the experiment with GLP-1 receptor [1] came to 177 nM. Moreover, the “Glucagon IC50” value with glucagon receptor [2] is 63 nM.

B2: [E9, E16K20(lactam), D28]G(4~29) (peptide)
peptide: GTFTSEYSKYLDERRAKDFVQWLMDT-NH2
modifications: lactam 13-17; N-terminus assumed
SMILES: CSCC[C@H](NC(=O)[C@H](CC(C)C)NC(=O)[C@H](Cc1c[nH]c2ccccc12)NC(=O)[C@H](CCC(N)=O)NC(=O)[C@@H](NC(=O)[C@H](Cc1ccccc1)NC(=O)[C@H](CC(=O)O)NC(=O)[C@@H]1CCCCNC(=O)CC[C@H](NC(=O)[C@H](CC(=O)O)NC(=O)[C@H](CC(C)C)NC(=O)[C@H](Cc2ccc(O)cc2)NC(=O)[C@H](CCCCN)NC(=O)[C@H](CO)NC(=O)[C@H](Cc2ccc(O)cc2)NC(=O)[C@H](CCC(=O)O)NC(=O)[C@H](CO)NC(=O)[C@@H](NC(=O)[C@H](Cc2ccccc2)NC(=O)[C@@H](NC(=O)CN)[C@@H](C)O)[C@@H](C)O)C(=O)N[C@@H](CCCNC(=N)N)C(=O)N[C@@H](CCCNC(=N)N)C(=O)N[C@@H](C)C(=O)N1)C(C)C)C(=O)N[C@@H](CC(=O)O)C(=O)N[C@H](C(N)=O)[C@@H](C)O
In the case of B2, in the experiment with GLP-1 receptor [1], the “GLP-1 EC50” value was determined as 151 nM. Further, in the experiment with glucagon receptor [2], the “Glucagon IC50” value lay in the range of 10 to 30 nM.

B3: [PLA6, E9, E16K20(Lactam)] glucagon(6-39) (Table 13, peptide 6) (peptide)
peptide: TSEYSKYLDERRAKDFVQWLMNTGPSSGAPPPS
modifications: PLA (phenyl lactic acid, in place of Phe6 of glucagon) at the N-terminus before the printed letters; lactam between E16 and K20 (glucagon numbering)
Regarding B3, the “GLP-1 EC50” value with GLP-1 receptor [5] amounted to 20 nM.

{PLA}-TSDYSKYLDERRAKDFVQWLMDT (lactam 10-14) [[PLA6, D9, E16K20(lactam), D28]G(6-29)]: the “GLP-1 EC50” value with GLP-1 receptor [5] came out at 4 nM. Moreover, the “Glucagon IC50” value with glucagon receptor [6] was 6 nM; with glucagon receptor [2], 10 to 30 nM.

Turning to {PLA}-TSDYSKYLDERRAQDFVEWLMKT (lactam 18-22) [[PLA6, D9, E16, E24K28(lactam)]G(6~29)], in the experiment with GLP-1 receptor [1], the “GLP-1 EC50” value is 289 nM. Besides, the “Glucagon IC50” value in the experiment with glucagon receptor [2] worked out at 22 nM.

Regarding HSQGTFTSDYARYLDARRAREFIKWLVRGRG [ANK2 (Bayer peptide)], the “GLP-1 EC50” value with GLP-1 receptor [1] stood at 0.28 nM.

Turning to FTSEYSKYLDERRAQDFVQWLMNTGPSSGAPPPS [E9, K12, E16 glucagon(6-39) (Table 13, peptide 1)], in the experiment with glucagon receptor [6], the “Glucagon IC50” value turned out to be 762 nM. For the same molecule, the “Glu IC50” value in the experiment with glucagon receptor [4] is 762 nM.

Consider FTSDYSKYLDERRAQDFVQWLMNTGPSSGAPPPS (lactam 7-11) [D9, K12E16(Lactam) glucagon(6-39) (Table 13, peptide 4)], for which, in the experiment with GLP-1 receptor [3], the “GLP-1 EC50” value is 119 nM. In addition, the “Glu IC50” value with glucagon receptor [4] turned out to be 828 nM.

As for FTSEYSKYLDERRAQDFVQWLMNTGPSSGAPPPS (lactam 7-11) [E9, K12E16(lactam) glucagon(6-39) (Table 13, peptide 2)], the “GLP-1 EC50” value with GLP-1 receptor [5] and with GLP-1 receptor [3] was 63 nM in each case. Moreover, the “Glucagon IC50” value with glucagon receptor [6] worked out at 2010 nM. In the experiment with glucagon receptor [4], the “Glu IC50” value came to 2010 nM.

Regarding FTSEYSKYLDERRAKDFVQWLMNTGPSSGAPPPS (lactam 11-15) [E9, E16K20(lactam) glucagon(6-39) (Table 13, peptide 3)], the “GLP-1 EC50” value in the experiment with GLP-1 receptor [5] and in the experiment with GLP-1 receptor [3] was 36 nM in each case. Moreover, in the experiment with glucagon receptor [6], the “Glucagon IC50” value is 42 nM. Further, the “Glu IC50” value with glucagon receptor [4] was 42 nM.

For AEGTFTSEYSKYLDERRAKDFVQWLMDT (lactam 15-19) [[A2E3, E16K20(Lactam), D28]G(2~29)], the “Glucagon IC50” value in the experiment with glucagon receptor [2] was 63 nM.
